What was measured:
[1] = molecular target: the molecule itself; assay: SEC; F-SEC on tryptophan fluorescence, Superose 6 increase 10/300, purified protein injected at 0.15 to 80 µM; 150 mM NaCl, 25 mM HEPES pH 7.5, 0.025% DDM
[2] = molecular target: the molecule itself; assay: SEC; F-SEC on the eGFP signal, Superdex 200 increase 10/300 GL, strep-tactin-purified samples of individually expressed or co-expressed proteins; 150 mM NaCl, 25 mM HEPES pH 7.5, 0.025% DDM
[3] = molecular target: the molecule itself; assay: SEC-MALS; SEC-MALLS, Superdex 200 increase 10/300 GL, 200 mM NaCl, 25 mM HEPES 7.5, 0.4 mL/min; CADM1(ECD)-His6 at 160, 80, 40 and 20 µM; monomer to dimer

B1: CADM1-StrepII3 (natural protein, human, UniProt Q9BY67 45-442, looked up)
chain: QNLFTKDVTVIEGEVATISCQVNKSDDSVIQLLNPNRQTIYFRDFRPLKDSRFQLLNFSSSELKVSLTNVSISDEGRYFCQLYTDPPQESYTTITVLVPPRNLMIDIQKDTAVEGEEIEVNCTAMASKPATTIRWFKGNTELKGKSEVEEWSDMYTVTSQLMLKVHKEDDGVPVICQVEHPAVTGNLQTQRYLEVQYKPQVHIQMTYPLQGLTREGDALELTCEAIGKPQPVMVTWVRVDDEMPQHAVLSGPNLFINNLNKTDNGTYRCEASNIVGKAHSDYMLYVYDPPTTIPPPTTTTTTTTTTTTTILTIITDSRAGEEGSIRAVDHAVIGGVVAVVVFAMLCLLIILGRYFARHKGTYFTHEAKGADDAADADTAIINAEGGQNNSEEKKEYFI
notes: CADM1 excluding the signal peptide, human, UniProtKB Q9BY67.2; called full-length in the results; expressed behind the vector's N-terminal signal peptide; also called full-length CADM1-StrepII3; source: HEK293-E+ cells, transiently transfected, solubilized in DDM, purified (strep-tactin, SEC); not shown: StrepII3, C-terminal, kept
B1: binds [1].

B2: CADM1-eGFP-StrepII3 (natural protein, human, UniProt Q9BY67 45-442, looked up)
chain: B1 chain
notes: CADM1 excluding the signal peptide, human, UniProtKB Q9BY67.2; expressed behind the vector's N-terminal signal peptide; source: HEK293-E+ cells, transiently transfected, solubilized in DDM, purified (strep-tactin); not shown: eGFP, C-terminal, kept; StrepII3, C-terminal, kept
B2: binds [2].

B3: CADM1(ECD)-His6 (domain or fragment, human, UniProt Q9BY67 45-374, looked up)
chain: QNLFTKDVTVIEGEVATISCQVNKSDDSVIQLLNPNRQTIYFRDFRPLKDSRFQLLNFSSSELKVSLTNVSISDEGRYFCQLYTDPPQESYTTITVLVPPRNLMIDIQKDTAVEGEEIEVNCTAMASKPATTIRWFKGNTELKGKSEVEEWSDMYTVTSQLMLKVHKEDDGVPVICQVEHPAVTGNLQTQRYLEVQYKPQVHIQMTYPLQGLTREGDALELTCEAIGKPQPVMVTWVRVDDEMPQHAVLSGPNLFINNLNKTDNGTYRCEASNIVGKAHSDYMLYVYDPPTTIPPPTTTTTTTTTTTTTILTIITDSRAGEEGSIRAVDH
notes: ectodomain of CADM1, human, UniProtKB Q9BY67.2, without the natural signal peptide; also called His-tagged CADM1 ectodomain; soluble CADM1(ECD)-His6; source: HEK293-E+ cells, secreted into the supernatant, purified (Ni Sepharose excel, SEC); not shown: His6, C-terminal, kept
B3 was tested, and the “stoichiometry N” value [3] was 2.
